This note sets out measurements from EP4763221A1 (Akeso Biopharma Co., Ltd., dated 2025).

Assay [1] addresses T1, human HER3-his (human, UniProt P21860 20-643).
T1 construct: Coating antigen of the ELISA; also called huHER3-his; antigen human HER3-his; not shown: his tag
Briefly: indirect ELISA, huHER3-his coated at 0.5 µg/mL; antibody 0.004 nM; replicate 2.

Assay [2] concerns the target T1, human HER3-his. Briefly: indirect ELISA, huHER3-his coated at 0.5 µg/mL; antibody 0.037 nM; replicate 1.
Assay [3] has as its target T1, human HER3-his. The assay can be described thus: indirect ELISA, huHER3-his coated at 0.5 µg/mL; antibody 0.004 nM; replicate 1. On the technique in general: ELISA stands for enzyme-linked immunosorbent assay.
Assay [4] addresses T1, human HER3-his. Briefly: indirect ELISA, huHER3-his coated at 0.5 µg/mL; antibody 0.111 nM; replicate 2.
The target in assay [5] is T1, human HER3-his. Briefly: indirect ELISA, huHER3-his coated at 0.5 µg/mL; antibody 0.037 nM; replicate 2.
Assay [6] deals with T1, human HER3-his. Briefly: indirect ELISA, huHER3-his coated at 0.5 µg/mL; antibody 1.000 nM; replicate 1.
In assay [7] the target is T1, human HER3-his. The assay can be described thus: indirect ELISA, huHER3-his coated at 0.5 µg/mL; antibody 0.001 nM; replicate 1.
The target of assay [8] is T1, human HER3-his. Briefly: indirect ELISA, huHER3-his coated at 0.5 µg/mL; antibody 0.001 nM; replicate 2.
The target in assay [9] is T1, human HER3-his. Briefly: indirect ELISA, huHER3-his coated at 0.5 µg/mL; antibody 0 nM (blank, background); replicate 1.
For assay [10], the target named is T2, HER3 on SK-BR-3 cell surface (UniProt P21860 20-1342, limits assumed).
T2 construct: whole, on cells; The target is the HER3 carried on SK-BR-3 cells; also called surface HER3 of SK-BR-3 cells; SK-BR-3 cells expressing HER3
The assay can be described thus: FACS on SK-BR-3 cells, anti-human IgG Fc-Alexa Fluor 647 detection.

Assay [11] deals with T1, human HER3-his. The assay can be described thus: indirect ELISA, huHER3-his coated at 0.5 µg/mL; antibody 0.111 nM; replicate 1.
In assay [12] the target is T1, human HER3-his. Briefly: indirect ELISA, huHER3-his coated at 0.5 µg/mL; antibody 0.333 nM; replicate 2.
Assay [13] has as its target T1, human HER3-his. Briefly: indirect ELISA, huHER3-his coated at 0.5 µg/mL; antibody 0.012 nM; replicate 1.
The target in assay [14] is T1, human HER3-his. Briefly: indirect ELISA, huHER3-his coated at 0.5 µg/mL; antibody 0.012 nM; replicate 2.
The target in assay [15] is T1, human HER3-his. The assay can be described thus: indirect ELISA, huHER3-his coated at 0.5 µg/mL, goat anti-human IgG Fc-HRP.
For assay [16], the target named is T1, human HER3-his. Briefly: indirect ELISA, huHER3-his coated at 0.5 µg/mL; antibody 0 nM (blank, background); replicate 2.
In assay [17] the target is T1, human HER3-his. The assay can be described thus: indirect ELISA, huHER3-his coated at 0.5 µg/mL; antibody 1.000 nM; replicate 2.
Assay [18] addresses T1, human HER3-his. Briefly: indirect ELISA, huHER3-his coated at 0.5 µg/mL; antibody 0.333 nM; replicate 1.

B1: anti-HER3 monoclonal antibody patritumab (antibody, human IgG1, kappa, V domains shown)
VH: QVQLQQWGAGLLKPSETLSLTCAVYGGSFSGYYWSWIRQPPGKGLEWIGEINHSGSTNYNPSLKSRVTISVETSKNQFSLKLSSVTAADTAVYYCARDKWTWYFDLWGRGTLVTVSS
VL: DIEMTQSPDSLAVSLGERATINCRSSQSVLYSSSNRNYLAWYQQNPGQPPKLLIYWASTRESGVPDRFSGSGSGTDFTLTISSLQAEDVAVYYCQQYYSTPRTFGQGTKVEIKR
notes: IgG1/kappa, expressed in 293F cells; also called HER3-targeted monoclonal antibody patritumab
The term EC50 denotes the concentration needed to bring the measured effect to its halfway point. On to B1, for which the “absorbance at 450 nm” value in the assay with human HER3-his [1] came out at 0.872 OD450; with human HER3-his [2], 2.57 OD450; with human HER3-his [3], 0.87 OD450; with human HER3-his [4], 2.79 OD450; in the assay with human HER3-his [5] it was 2.57 OD450; with human HER3-his [6], 2.87 OD450. Moreover, the “absorbance at 450 nm” value is 0.382 OD450 in the assay with human HER3-his [7]; 0.394 OD450 with human HER3-his [8]; 0.091 OD450 in the assay with human HER3-his [9]; 2.83 OD450 with human HER3-his [11]; 2.86 OD450 with human HER3-his [12]; 1.78 OD450 with human HER3-his [13]. Further, the “absorbance at 450 nm” value was determined as 1.77 OD450 with human HER3-his [14], 0.087 OD450 in the assay with human HER3-his [16], 2.84 OD450 in the assay with human HER3-his [17] and 2.89 OD450 with human HER3-his [18]. For the same molecule, the EC50 in assay [10] was found to be 8.48 nM; with human HER3-his [15] it was 0.009 nM.
